According to the supplement of paper PMC7877785:
± gives the uncertainty stated by the source.

Assay: self-splicing fitness, log relative to wild type (ln ratio); higher = more splicing; Tetrahymena group I intron in knt gene, E. coli kanamycin selection, DiMSum; sequences stand for … in CUCUCU…GGAGGGAAAAGUUAUCAGGCAUGCACCUGGUAGCUAGUCUUUAAACCAAUAGAUUGCAUCGGUUUAAAAGGCAAGACCGUCAAAUUGCGGGAAAGGGGUCAACAGCCGUUCAGUACCAAGUCUCAGGGGAAACUUUGAGAUGGCCUUGCAAAGGGUAUGGUAAUAAGCUGACGGACAUGGUCCUAACCACGCAGCCAAGUCCUAAGUCAACAGAUCUUCUGUUGAUAUGGAUGCAGUUCACAGACUAAAUGUCGGUCGGGGAAGAUGUAUUCUUCUCAUAAGAUAUAGUCGGACCUCUCCUUAAUGGGAGCUAGCGGAUGAAGUGAUGCAACACUGGAGCCGCUGGGAACUAAUUUGUAUGCGAAAGUAUAUUGAUUAGUUUUGGAGUACUCGUGGUCG
Procedure, shortened: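 The eight P1ex-region nucleotides of an intron in the knt kanamycin-resistance gene on pET-22b(+) were all randomised and the library put into E. coli BL21(DE3). Six replicate transformations were grown overnight at 37°C or 30°C on LB agar with or without 25 μg/mL kanamycin, together with 100 μg/mL carbenicillin, 50 μM IPTG and 0.2% rhamnose. Colonies were pooled and amplicon-sequenced on an Illumina HiSeq 2500. Fitness from DiMSum is the error-weighted combination of wild-type-normalised replicate fold changes, kanamycin over none.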

Sequence	self-splicing fitness (ln) (30 °C)	self-splicing fitness (ln) (37 °C)
AUAAAGCAAUAUUACGGUAA	-1.21 ± 0.077	-0.709 ± 0.09
UGAUAGCAAUAUUACGGUAG	-2.38 ± 0.2	-1.12 ± 0.17
CCUGAGCAAUAUUACGCGUA	-3.77 ± 0.34	-2.33 ± 0.23
UUUUAGCAAUAUUACGAUCU	-0.719 ± 0.13	-0.72 ± 0.15
UACUAGCAAUAUUACGGAGC	-1.89 ± 0.25	-2.56 ± 0.3
CGGUAGCAAUAUUACGGUAU	-3.77 ± 0.22	-2.31 ± 0.22
ACUGAGCAAUAUUACGGCCU	-2.58 ± 0.23	-2.12 ± 0.25
UAUUAGCAAUAUUACGUCUG	0.0275 ± 0.14	-0.652 ± 0.1
CUGCAGCAAUAUUACGUAUA	-2.64 ± 0.17	-2.16 ± 0.18
CCUAAGCAAUAUUACGUCGA	-2.67 ± 0.23	-2.77 ± 0.25
ACAGAGCAAUAUUACGUGCC	-3.54 ± 0.46	–
GCACAGCAAUAUUACGCCGG	-1.25 ± 0.1	-0.896 ± 0.16
CGGGAGCAAUAUUACGAUGC	-3.44 ± 0.2	-2.91 ± 0.4
CCCAAGCAAUAUUACGAGAU	-2.91 ± 0.14	-3.31 ± 0.21
GCCCAGCAAUAUUACGAGUG	-1.37 ± 0.076	-0.365 ± 0.085
UGCGAGCAAUAUUACGAACG	-1.07 ± 0.14	-1.05 ± 0.16
AGGGAGCAAUAUUACGGUGU	-4.33 ± 0.22	-2.37 ± 0.18
CGUAAGCAAUAUUACGAGGU	-3.63 ± 0.46	-1.71 ± 0.29
GAAUAGCAAUAUUACGUAUC	-1.7 ± 0.13	-1.75 ± 0.2
AGACAGCAAUAUUACGGAAC	–	-1.4 ± 0.22
AUCUAGCAAUAUUACGAUGU	-0.781 ± 0.08	-0.0281 ± 0.11
GACGAGCAAUAUUACGAGCC	-2.73 ± 0.33	–
AUUCAGCAAUAUUACGUGCC	-1.51 ± 0.1	-0.682 ± 0.14
UCUUAGCAAUAUUACGAUCU	-2.59 ± 0.29	-2.04 ± 0.29
UGGUAGCAAUAUUACGCGUG	-0.581 ± 0.087	0.251 ± 0.1

Sequence	self-splicing fitness (ln) (30 °C)	self-splicing fitness (ln) (37 °C)
GGAUAGCAAUAUUACGGGAC	-2.5 ± 0.24	-2.15 ± 0.17
GGACAGCAAUAUUACGUUUC	-3.16 ± 0.28	-1.82 ± 0.32
AGCUAGCAAUAUUACGAACA	-2.24 ± 0.23	-0.832 ± 0.2
CCCAAGCAAUAUUACGGUAU	-4.33 ± 0.23	-2.51 ± 0.21
CUCUAGCAAUAUUACGUUAA	-2.75 ± 0.27	–
AACGAGCAAUAUUACGAUAU	-3.13 ± 0.21	-1.3 ± 0.17
AGUGAGCAAUAUUACGCGCU	–	-1.83 ± 0.39
CGAUAGCAAUAUUACGUUAU	-3.93 ± 0.33	-1.61 ± 0.18
GGCUAGCAAUAUUACGCGUA	-0.142 ± 0.14	0.00477 ± 0.15
GAGGAGCAAUAUUACGAGCA	-3.52 ± 0.48	-2.4 ± 0.46
CAAGAGCAAUAUUACGACGU	-2.88 ± 0.23	–
GACUAGCAAUAUUACGUAAC	-1.33 ± 0.073	-0.875 ± 0.1
UAAUAGCAAUAUUACGGAAU	-2.77 ± 0.2	-1.76 ± 0.2
UAGCAGCAAUAUUACGGGAC	-4.55 ± 0.31	-2.75 ± 0.26
AAGGAGCAAUAUUACGGUCA	–	-2.26 ± 0.32
AGCGAGCAAUAUUACGAAGG	-4.58 ± 0.26	-2.09 ± 0.15
GACGAGCAAUAUUACGUGGG	-4.32 ± 0.36	-3.12 ± 0.2
AGUCAGCAAUAUUACGGGAA	-2.12 ± 0.17	-2.4 ± 0.22
AUGUAGCAAUAUUACGUACU	-0.0156 ± 0.06	-0.16 ± 0.073
GCCCAGCAAUAUUACGCGCU	-3.29 ± 0.18	-2.41 ± 0.2
GCGGAGCAAUAUUACGGUUG	-3.64 ± 0.2	-1.78 ± 0.18
AGACAGCAAUAUUACGUGUA	-1.89 ± 0.078	-1.61 ± 0.069
CACGAGCAAUAUUACGCGCC	–	-0.83 ± 0.48
GUUUAGCAAUAUUACGCCGA	-2.93 ± 0.4	–
AUGCAGCAAUAUUACGAAAG	-2.87 ± 0.23	-3.15 ± 0.4

Sequence	self-splicing fitness (ln) (30 °C)	self-splicing fitness (ln) (37 °C)
AAGAAGCAAUAUUACGACCG	-1.05 ± 0.088	0.483 ± 0.14
GUAGAGCAAUAUUACGUCCA	-2.45 ± 0.28	-0.739 ± 0.34
UCUGAGCAAUAUUACGGUAC	-3.24 ± 0.47	–
AGUGAGCAAUAUUACGUGGU	-3.64 ± 0.22	-2.18 ± 0.23
GACUAGCAAUAUUACGGGUC	-3.22 ± 0.19	-2.71 ± 0.28
CCAAAGCAAUAUUACGUAUU	-4.14 ± 0.13	-2.71 ± 0.12
UGUCAGCAAUAUUACGCAUA	-0.485 ± 0.06	0.0762 ± 0.068
GACGAGCAAUAUUACGUAGA	-2.81 ± 0.26	-1.98 ± 0.22
GACUAGCAAUAUUACGUGUA	-1.06 ± 0.067	-0.258 ± 0.069
ACGCAGCAAUAUUACGCAGG	–	-1.05 ± 0.15
UCGUAGCAAUAUUACGGCUA	-0.508 ± 0.32	-1.81 ± 0.23
UUCGAGCAAUAUUACGAAUG	-3.37 ± 0.47	-2.26 ± 0.31
UAGUAGCAAUAUUACGGGAC	-4.2 ± 0.42	-2.27 ± 0.43
UCGAAGCAAUAUUACGCAUC	-1.47 ± 0.29	-2.36 ± 0.3
UCGUAGCAAUAUUACGUUAU	-4.46 ± 0.42	-2.64 ± 0.34
AUCGAGCAAUAUUACGUACG	–	-2.07 ± 0.27
UUUGAGCAAUAUUACGCCGA	-2.3 ± 0.42	-1.61 ± 0.41
GUGUAGCAAUAUUACGGCUG	-3.23 ± 0.23	-1.28 ± 0.25
UCAGAGCAAUAUUACGUAUC	-2.86 ± 0.36	-1.41 ± 0.31
GACUAGCAAUAUUACGUCUA	-2.89 ± 0.2	-0.852 ± 0.12
CACCAGCAAUAUUACGCCCG	-0.197 ± 0.14	0.343 ± 0.19
GAGAAGCAAUAUUACGGGUA	-2.02 ± 0.15	-2.14 ± 0.16
GUAUAGCAAUAUUACGGCCC	–	-0.246 ± 0.44
CAUGAGCAAUAUUACGUUUA	-3.69 ± 0.21	-2.84 ± 0.2
GGCAAGCAAUAUUACGCAAA	-0.878 ± 0.092	-1.2 ± 0.097

Sequence	self-splicing fitness (ln) (30 °C)	self-splicing fitness (ln) (37 °C)
AGGUAGCAAUAUUACGCAUU	-1.862 ± 0.015	-0.988 ± 0.034
CAUUAGCAAUAUUACGCCCA	-2.43 ± 0.2	-1.47 ± 0.24
AGUCAGCAAUAUUACGCUGU	-4.12 ± 0.34	-2.73 ± 0.22
UGAGAGCAAUAUUACGAGGG	-3.68 ± 0.35	-1.09 ± 0.36
CUGAAGCAAUAUUACGUCAA	-1.2 ± 0.065	-0.435 ± 0.084
CGGCAGCAAUAUUACGGUUU	-2.16 ± 0.077	-0.769 ± 0.089
CCUUAGCAAUAUUACGGGCU	-4.07 ± 0.28	-2.87 ± 0.22
CUGGAGCAAUAUUACGUUAG	-1.65 ± 0.068	-1.51 ± 0.098
AGGCAGCAAUAUUACGUUUA	-1.33 ± 0.072	-0.496 ± 0.08
CCGUAGCAAUAUUACGUUCA	-1.34 ± 0.2	-1.91 ± 0.25
CUAUAGCAAUAUUACGACAC	-2.95 ± 0.34	-1.88 ± 0.28
CUAAAGCAAUAUUACGAGAA	-2.99 ± 0.19	-3.25 ± 0.33
CGCAAGCAAUAUUACGGGCG	-4.43 ± 0.19	-2.76 ± 0.2
AUGGAGCAAUAUUACGCAAG	-4.55 ± 0.42	-1.09 ± 0.31
GCAGAGCAAUAUUACGACAC	-1.46 ± 0.2	-0.344 ± 0.33
CAGCAGCAAUAUUACGUCCC	-2.38 ± 0.47	–
UUGAAGCAAUAUUACGUAUC	–	-1.93 ± 0.42
AGUGAGCAAUAUUACGCCCA	-3.28 ± 0.46	-2.42 ± 0.37
CAACAGCAAUAUUACGACAU	-2.026 ± 0.012	-1.04 ± 0.032
GCGGAGCAAUAUUACGAAAU	-2.94 ± 0.5	-1.23 ± 0.42
UUGAAGCAAUAUUACGGCUU	-3.03 ± 0.26	-2.71 ± 0.3
AGUGAGCAAUAUUACGAGUC	-4.15 ± 0.47	-1.93 ± 0.18
CCGGAGCAAUAUUACGUGCA	-3.1 ± 0.35	-2.06 ± 0.29
GCUUAGCAAUAUUACGGUUU	-1.4 ± 0.068	-0.908 ± 0.074
GCGCAGCAAUAUUACGAGGU	-2.49 ± 0.2	-1.24 ± 0.25
